Earlier results on one substance are cited in patent US3940480A, “Process for production of stabilized powdery secretin preparation by lyophilization” (priority 1972, dated 1976).

The conditions of the data set: kept at -20°C.

For the substance Secretin, the “Hormone activity of secretin kept at low temperature (in words)” value is given as “gradually loses its hormone activity”.
